The assay concerns the target T1, CBX1 chromodomain.
T1 construct: Chromodomain of Chromobox protein 1 (CBX1); Expression, purification and construct limits are in the Supporting Information; also called Chromobox protein 1
Description: ITC; CBX1 chromodomain and eIF4A3 K374me0/1/2/3 peptides. As to conditions: both partners purified. A general note: Isothermal titration calorimetry measures the heat released or taken up as one component is titrated into another.

Data on two molecules can be found in paper PMC10540216, “Activity Guided Azide-methyllysine Photo-trapping for Substrate Profiling of Lysine Demethylases” (Journal of the American Chemical Society, 2023).

Where no end group is shown, it is not given here.

As usually defined, the Kd is the concentration at which binding is half-saturated. Regarding GRSGRYGRKGVAINFVK (also: trimethyllysine at K374) [eIF4A3-K374me3 peptide 13], binding was put at a Kd of 23.2 ± 2 µM. In turn, GRSGRYGRKGVAINFVK (also: dimethyllysine at K374) [eIF4A3-K374me2 peptide 23] came in with a Kd of 95.2 ± 1.4 µM.
